Data published in the supplement of paper PMC10065799, “High-throughput profiling of sequence recognition by tyrosine kinases and SH2 domains using bacterial peptide display” (eLife, 2023).

Tests used:
[1] = biological target: EPHB1 (UniProt P54762); experiment: phosphorylation enrichment, bacterial display (enrichment ratio); higher = better substrate or ligand; peptides without Tyr show the background
[2] = tested on: AncSZ; experiment: as above
[3] = tested on: c-Src; experiment: as above
[4] = biological target: EPHB2 (UniProt P29323); experiment: as above
[5] = biological target: Hck (UniProt P08631); experiment: as above
Hck, sequence (P08631 whole entry, looked up): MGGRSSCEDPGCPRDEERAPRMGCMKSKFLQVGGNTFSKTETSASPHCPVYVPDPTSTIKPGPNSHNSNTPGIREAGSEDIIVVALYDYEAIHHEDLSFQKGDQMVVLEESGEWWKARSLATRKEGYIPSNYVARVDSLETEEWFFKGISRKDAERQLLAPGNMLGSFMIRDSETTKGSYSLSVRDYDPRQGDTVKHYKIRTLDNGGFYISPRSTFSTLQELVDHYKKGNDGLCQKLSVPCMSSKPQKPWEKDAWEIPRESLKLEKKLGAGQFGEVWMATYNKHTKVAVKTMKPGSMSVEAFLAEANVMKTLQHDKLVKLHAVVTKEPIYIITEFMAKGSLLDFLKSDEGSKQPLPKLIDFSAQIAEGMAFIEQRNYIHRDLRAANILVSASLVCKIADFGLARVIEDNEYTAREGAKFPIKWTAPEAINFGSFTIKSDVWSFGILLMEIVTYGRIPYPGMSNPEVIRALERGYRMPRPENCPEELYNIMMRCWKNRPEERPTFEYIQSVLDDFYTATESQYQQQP

[6] = tested on: Fer (mouse); experiment: as above
[7] = biological target: MERTK (UniProt Q12866); experiment: as above
[8] = biological target: FGFR1 (UniProt P11362); experiment: as above
FGFR1, sequence (P11362 whole entry, looked up): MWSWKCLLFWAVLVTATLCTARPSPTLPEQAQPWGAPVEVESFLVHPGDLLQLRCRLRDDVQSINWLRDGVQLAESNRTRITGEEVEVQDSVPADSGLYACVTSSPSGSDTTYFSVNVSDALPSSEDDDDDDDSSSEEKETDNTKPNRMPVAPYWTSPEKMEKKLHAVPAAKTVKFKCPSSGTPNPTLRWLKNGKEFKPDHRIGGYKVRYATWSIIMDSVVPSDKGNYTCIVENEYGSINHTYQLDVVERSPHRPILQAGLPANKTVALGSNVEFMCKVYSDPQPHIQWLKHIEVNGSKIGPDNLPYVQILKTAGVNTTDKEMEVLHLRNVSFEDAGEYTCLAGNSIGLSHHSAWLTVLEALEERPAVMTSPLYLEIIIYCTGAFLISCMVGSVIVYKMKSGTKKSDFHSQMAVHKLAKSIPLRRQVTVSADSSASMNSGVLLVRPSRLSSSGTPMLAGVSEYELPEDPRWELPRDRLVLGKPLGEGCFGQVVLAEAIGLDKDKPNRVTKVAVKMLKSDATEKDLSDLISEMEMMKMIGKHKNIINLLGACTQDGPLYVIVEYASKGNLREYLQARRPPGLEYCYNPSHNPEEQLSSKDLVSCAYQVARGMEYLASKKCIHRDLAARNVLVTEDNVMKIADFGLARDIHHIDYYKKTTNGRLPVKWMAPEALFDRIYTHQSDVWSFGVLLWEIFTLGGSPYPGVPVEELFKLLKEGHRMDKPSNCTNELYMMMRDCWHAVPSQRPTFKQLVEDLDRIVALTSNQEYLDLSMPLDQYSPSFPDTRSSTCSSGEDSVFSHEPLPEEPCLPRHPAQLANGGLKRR

[9] = tested on: c-Abl (mouse); experiment: as above
[10] = biological target: Fes (UniProt P07332); experiment: as above
Fes, sequence (P07332 whole entry, looked up): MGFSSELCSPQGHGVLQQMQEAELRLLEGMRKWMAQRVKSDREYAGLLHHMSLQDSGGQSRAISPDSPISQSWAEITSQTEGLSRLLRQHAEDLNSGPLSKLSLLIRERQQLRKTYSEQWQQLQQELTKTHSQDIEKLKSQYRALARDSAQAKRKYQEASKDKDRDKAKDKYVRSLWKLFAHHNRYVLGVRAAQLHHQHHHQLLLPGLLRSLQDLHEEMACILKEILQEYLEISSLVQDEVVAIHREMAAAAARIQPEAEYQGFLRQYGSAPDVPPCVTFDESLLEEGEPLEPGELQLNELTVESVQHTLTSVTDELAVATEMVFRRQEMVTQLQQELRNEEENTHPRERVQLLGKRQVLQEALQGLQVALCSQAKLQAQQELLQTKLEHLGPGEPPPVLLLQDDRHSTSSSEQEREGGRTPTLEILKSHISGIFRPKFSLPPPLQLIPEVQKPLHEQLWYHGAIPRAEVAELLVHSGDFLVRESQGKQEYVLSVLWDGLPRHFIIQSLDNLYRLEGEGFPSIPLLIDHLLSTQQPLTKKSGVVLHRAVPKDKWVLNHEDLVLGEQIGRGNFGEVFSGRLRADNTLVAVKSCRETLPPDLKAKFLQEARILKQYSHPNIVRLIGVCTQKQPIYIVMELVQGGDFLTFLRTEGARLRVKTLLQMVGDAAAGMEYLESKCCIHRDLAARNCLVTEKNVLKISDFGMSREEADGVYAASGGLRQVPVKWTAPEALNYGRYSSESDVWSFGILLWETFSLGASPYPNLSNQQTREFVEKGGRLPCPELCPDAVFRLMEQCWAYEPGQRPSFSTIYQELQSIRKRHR

[11] = biological target: FGFR3 (UniProt P22607); experiment: as above
FGFR3, sequence (P22607 whole entry, looked up): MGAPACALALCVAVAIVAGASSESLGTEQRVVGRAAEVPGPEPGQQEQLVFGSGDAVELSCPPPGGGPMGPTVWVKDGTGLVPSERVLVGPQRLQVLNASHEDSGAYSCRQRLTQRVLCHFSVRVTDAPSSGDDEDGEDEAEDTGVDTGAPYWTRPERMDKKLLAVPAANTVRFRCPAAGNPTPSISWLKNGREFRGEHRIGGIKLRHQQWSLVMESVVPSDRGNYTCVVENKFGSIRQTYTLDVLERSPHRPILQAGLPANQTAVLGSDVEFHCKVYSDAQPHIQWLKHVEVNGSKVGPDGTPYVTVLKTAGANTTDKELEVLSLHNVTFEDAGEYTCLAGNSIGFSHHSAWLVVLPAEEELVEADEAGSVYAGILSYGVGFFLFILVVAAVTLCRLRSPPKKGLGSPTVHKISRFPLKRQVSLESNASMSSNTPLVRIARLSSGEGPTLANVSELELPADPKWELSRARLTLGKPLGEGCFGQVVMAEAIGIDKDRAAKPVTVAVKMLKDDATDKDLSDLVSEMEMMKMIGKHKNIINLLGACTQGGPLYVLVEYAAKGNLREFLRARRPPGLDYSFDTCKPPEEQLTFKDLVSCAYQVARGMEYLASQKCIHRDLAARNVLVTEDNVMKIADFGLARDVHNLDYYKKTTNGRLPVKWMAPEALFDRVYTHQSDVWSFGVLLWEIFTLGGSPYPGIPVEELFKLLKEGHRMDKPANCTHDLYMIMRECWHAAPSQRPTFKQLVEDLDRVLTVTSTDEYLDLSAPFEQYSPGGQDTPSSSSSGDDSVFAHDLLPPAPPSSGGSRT

[12] = biological target: Jak2 (UniProt O60674); experiment: as above
Jak2, sequence (O60674 whole entry, looked up): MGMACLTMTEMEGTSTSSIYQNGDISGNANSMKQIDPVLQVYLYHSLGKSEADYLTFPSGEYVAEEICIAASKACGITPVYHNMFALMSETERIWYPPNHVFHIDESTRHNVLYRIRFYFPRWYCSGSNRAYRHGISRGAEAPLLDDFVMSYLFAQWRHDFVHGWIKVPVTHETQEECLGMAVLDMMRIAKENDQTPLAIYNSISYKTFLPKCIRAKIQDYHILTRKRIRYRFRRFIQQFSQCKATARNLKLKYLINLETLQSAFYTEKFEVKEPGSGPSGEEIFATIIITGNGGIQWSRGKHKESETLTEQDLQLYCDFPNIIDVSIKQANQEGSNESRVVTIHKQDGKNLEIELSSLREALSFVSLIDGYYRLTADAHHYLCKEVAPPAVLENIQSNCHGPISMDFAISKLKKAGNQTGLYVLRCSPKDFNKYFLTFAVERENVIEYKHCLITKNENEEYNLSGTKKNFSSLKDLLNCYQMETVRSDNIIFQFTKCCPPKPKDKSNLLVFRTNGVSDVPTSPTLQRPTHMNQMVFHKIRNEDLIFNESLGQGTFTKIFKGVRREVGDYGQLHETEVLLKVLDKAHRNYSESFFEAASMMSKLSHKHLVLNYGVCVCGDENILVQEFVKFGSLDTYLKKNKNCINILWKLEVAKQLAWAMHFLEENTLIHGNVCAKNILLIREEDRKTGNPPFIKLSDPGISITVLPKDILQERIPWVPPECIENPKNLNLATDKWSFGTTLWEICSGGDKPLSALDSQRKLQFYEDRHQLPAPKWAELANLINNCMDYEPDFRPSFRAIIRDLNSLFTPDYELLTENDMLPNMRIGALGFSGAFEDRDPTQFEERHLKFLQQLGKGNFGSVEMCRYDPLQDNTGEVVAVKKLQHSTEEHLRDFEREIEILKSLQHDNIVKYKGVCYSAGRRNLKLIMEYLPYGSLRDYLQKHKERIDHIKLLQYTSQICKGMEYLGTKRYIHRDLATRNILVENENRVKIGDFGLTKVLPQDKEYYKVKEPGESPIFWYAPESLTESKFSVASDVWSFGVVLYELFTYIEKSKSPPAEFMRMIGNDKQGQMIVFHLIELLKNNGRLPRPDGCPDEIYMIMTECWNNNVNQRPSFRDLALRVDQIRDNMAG

[13] = biological target: Fyn (UniProt P06241); experiment: as above
Fyn, sequence (P06241 whole entry, looked up): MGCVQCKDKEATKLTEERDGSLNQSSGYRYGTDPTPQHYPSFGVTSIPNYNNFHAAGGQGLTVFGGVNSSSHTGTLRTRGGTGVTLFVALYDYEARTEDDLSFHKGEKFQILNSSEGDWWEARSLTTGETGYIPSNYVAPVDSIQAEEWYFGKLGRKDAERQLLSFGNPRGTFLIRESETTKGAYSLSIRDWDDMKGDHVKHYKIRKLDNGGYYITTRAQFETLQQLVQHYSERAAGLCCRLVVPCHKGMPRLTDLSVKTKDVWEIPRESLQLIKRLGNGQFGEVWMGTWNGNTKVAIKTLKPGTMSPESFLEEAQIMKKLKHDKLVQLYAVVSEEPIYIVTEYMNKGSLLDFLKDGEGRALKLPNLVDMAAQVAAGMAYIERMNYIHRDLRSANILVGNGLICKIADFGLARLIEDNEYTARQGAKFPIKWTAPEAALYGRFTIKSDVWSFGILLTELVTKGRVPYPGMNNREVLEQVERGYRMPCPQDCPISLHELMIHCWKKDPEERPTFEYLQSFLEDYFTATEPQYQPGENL

[14] = biological target: c-Src SH2; experiment: SH2 binding enrichment of the phosphorylated peptide, bacterial display (enrichment ratio); higher = better substrate or ligand; peptides without Tyr show the background
[15] = biological target: SHP2-C SH2; experiment: as above
[16] = biological target: Grb2 SH2 (UniProt P62993); experiment: as above
Grb2 SH2, sequence (P62993 whole entry, looked up, the tested form may be a part): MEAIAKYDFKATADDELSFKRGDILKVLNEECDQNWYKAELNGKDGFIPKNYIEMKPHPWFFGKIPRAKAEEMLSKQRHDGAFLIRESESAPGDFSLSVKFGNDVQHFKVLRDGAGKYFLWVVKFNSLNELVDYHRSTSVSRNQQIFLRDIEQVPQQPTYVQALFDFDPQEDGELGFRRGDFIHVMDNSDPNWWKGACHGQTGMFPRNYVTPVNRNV
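For SH2 binding enrichment of the phosphorylated peptide, bacterial display in this document: peptide library displayed on the E. coli surface as eCPX fusions, selected cells deep-sequenced, score is each peptide's frequency after selection divided by its frequency in the input.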
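For phosphorylation enrichment, bacterial display in this document: 11-residue human phosphosite peptides and single-mutation variants displayed on the E. coli surface, counted by deep sequencing, each peptide's frequency after selection divided by its frequency in the unselected input library; frequency after pTyr selection over input frequency; kinase dosed for 20-30% of maximal phosphorylation in three min.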

Row | Sequence | phosphorylation enrichment [1] | phosphorylation enrichment [2] | phosphorylation enrichment [3] | phosphorylation enrichment [4] | phosphorylation enrichment [5] | phosphorylation enrichment [6] | phosphorylation enrichment [7] | phosphorylation enrichment [8] | phosphorylation enrichment [9] | phosphorylation enrichment [10] | phosphorylation enrichment [11] | phosphorylation enrichment [12] | phosphorylation enrichment [13] | SH2 binding enrichment [14] | SH2 binding enrichment [15] | SH2 binding enrichment [16]
1 | DKEKWYPLGNS [PIK3C2G_Y1438] | 0.43 | 0.762 | 0.345 | 0.441 | 0.372 | 0.422 | 0.292 | 0.384 | 0.488 | 0.868 | 0.569 | 0.681 | 0.366 | 0.44 | 1.11 | 0.83
2 | SLIDMYSEVLA [OPA1_Y268_D273A] | 0.766 | 1.24 | 1.61 | 0.869 | 0.873 | 0.891 | 0.615 | 1.12 | 0.539 | 1.03 | 0.832 | 0.925 | 0.959 | 0.553 | 0.762 | 0.966
3 | VFDMLYQLANL [USP24_Y1087] | 1.32 | 1.52 | 5.01 | 1.34 | 3.29 | 14.1 | 2.5 | 0.754 | 0.945 | 1.08 | 0.82 | 0.874 | 3 | 1.11 | 1.84 | 1.53
4 | CTTIHYNYMCH [TP53_Y234_N239H] | 0.724 | 0.751 | 0.506 | 0.761 | 0.49 | 0.597 | 0.407 | 0.514 | 0.581 | 0.855 | 0.706 | 0.672 | 0.449 | 3.68 | 2.4 | 1.26
5 | QGRQTYLLQPA [DDR2_Y813_P815L] | 0.5 | 0.498 | 0.701 | 0.529 | 0.411 | 0.388 | 0.555 | 0.63 | 0.693 | 0.514 | 0.484 | 0.726 | 0.462 | 0.618 | 0.895 | 1.21
6 | DFPIGYPSFLA [TBCK_Y153_YF] | 0.477 | 0.79 | 0.535 | 0.503 | 0.481 | 0.459 | 0.37 | 0.578 | 0.594 | 1.07 | 0.631 | 0.748 | 0.517 | 0.364 | 0.578 | 0.635
7 | QNTGDDYDLYG [PTPN11_Y62_Y62D] | 0.985 | 2.09 | 1.99 | 1.63 | 1.86 | 0.674 | 0.697 | 0.82 | 0.841 | 1.56 | 1.51 | 1.9 | 1.35 | 0.58 | 0.803 | 0.92
8 | DKGTLYIVEQI [PLBD1_Y375] | 0.579 | 0.985 | 0.383 | 0.525 | 0.413 | 0.463 | 0.355 | 0.423 | 0.737 | 1.09 | 0.703 | 1.03 | 0.492 | 0.413 | 0.88 | 0.711
9 | EYGFRYELVQY [UGGT2_Y1289] | 0.986 | 1.83 | 0.584 | 0.879 | 0.674 | 3.36 | 0.631 | 0.872 | 0.932 | 1.65 | 1.17 | 1.62 | 0.558 | 2.15 | 0.787 | 0.768
10 | PLDGGYFTLQI [TP53_Y327_E326G] | 1.2 | 1.79 | 1.37 | 0.776 | 0.679 | 0.766 | 0.5 | 1.67 | 1.09 | 1.75 | 1.59 | 5.04 | 0.726 | 0.518 | 0.663 | 0.71
11 | PSAELYSFALP [PDGFRB_Y716_N718Y_YF] | 10.7 | 2.77 | 7.32 | 11.8 | 6.93 | 17.4 | 13.2 | 6.2 | 1.51 | 1.28 | 5.36 | 1.03 | 7.74 | 0.546 | 0.631 | 0.911
12 | CTTIPYNYMCN [TP53_Y234_H233P] | 0.528 | 1.18 | 0.55 | 0.509 | 0.433 | 0.424 | 0.418 | 0.543 | 0.615 | 0.863 | 0.605 | 0.791 | 0.47 | 5.64 | 1.1 | 0.913
13 | FADIAYNFRHR [PAH_Y166_G171R_YF] | 0.343 | 0.577 | 0.415 | 0.425 | 0.374 | 0.348 | 0.405 | 0.317 | 0.537 | 0.652 | 0.44 | 0.487 | 0.407 | 0.547 | 0.872 | 0.888
14 | DLVSEYQQFQD [TUBB3_Y422_YF] | 0.721 | 1.52 | 0.657 | 0.662 | 0.643 | 0.58 | 0.511 | 0.671 | 0.8 | 1.33 | 1.01 | 1.25 | 0.675 | 0.598 | 0.687 | 0.918
15 | KVALVYGQMNE [ATP5F1B_Y269] | 0.446 | 0.785 | 1.97 | 0.495 | 1.05 | 0.525 | 0.38 | 0.443 | 0.65 | 1.13 | 0.606 | 0.769 | 1.47 | 0.57 | 0.734 | 0.851
16 | EQSGSYIWVLA [DLG1_Y895_P899L] | 0.634 | 1.27 | 0.476 | 0.641 | 0.517 | 0.526 | 0.504 | 1.11 | 0.705 | 1.32 | 0.917 | 1.14 | 0.482 | 0.383 | 0.394 | 0.65
17 | LSDGPYSNPYE [EPOR_Y485] |  |  | 3.36 |  |  |  |  |  | 3.22 |  |  | 3.98 |  | 5.44 | 0.703 | 1.39
